Target: HpiC1
Assay: crystal structure

Substance: HpiC1 (enzyme)
- stoichiometry N: 2

Reference: publication PMC5880276
